How the values were obtained:
[1] = target: T1, Cas1-Cas2 complex (Escherichia coli, UniProt Q46896;P45956 1-305;1-94); assay: EMSA; no Mg2+ added; EMSA: 20 nM DNA, 0-500 nM Cas1-Cas2, 20 mM Tris-HCl pH 8.0, BSA 100 (ug/ml), 7% glycerol, 37 C 30 min; 5% acrylamide TBE gel; conditions: protein: recombinant, tags: Cas1 N-terminal His6, Cas2 untagged, chain copies: 4;2, label: 5'-Cy5 on strand 1, 10 bp duplex
T1 sequence 1: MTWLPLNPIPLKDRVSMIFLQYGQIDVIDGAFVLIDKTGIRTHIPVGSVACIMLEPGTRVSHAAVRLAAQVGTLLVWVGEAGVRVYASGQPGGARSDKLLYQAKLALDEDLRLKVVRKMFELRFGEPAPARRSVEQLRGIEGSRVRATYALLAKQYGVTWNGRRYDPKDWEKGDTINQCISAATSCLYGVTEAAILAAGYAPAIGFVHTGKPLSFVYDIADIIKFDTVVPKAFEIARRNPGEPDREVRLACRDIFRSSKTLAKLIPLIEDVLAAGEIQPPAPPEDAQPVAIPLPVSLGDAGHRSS
T1 sequence 2: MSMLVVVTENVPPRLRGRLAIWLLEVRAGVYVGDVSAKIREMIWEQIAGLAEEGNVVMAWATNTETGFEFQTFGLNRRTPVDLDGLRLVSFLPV

[2] = target: T1, Cas1-Cas2 complex; assay: EMSA; no Mg2+ added; up to 500 nM; EMSA: 20 nM DNA, 0-500 nM Cas1-Cas2, 20 mM Tris-HCl pH 8.0, BSA 100 (ug/ml), 7% glycerol, 37 C 30 min; 5% acrylamide TBE gel; conditions: protein: recombinant; tags: Cas1 N-terminal His6; Cas2 untagged; chain copies: 4;2; label: 5'-Cy5 on strand 1; blunt
[3] = target: T1, Cas1-Cas2 complex; assay: EMSA; no Mg2+ added; complex formation improved over DNA-10; EMSA: 20 nM DNA, 0-500 nM Cas1-Cas2, 20 mM Tris-HCl pH 8.0, BSA 100 (ug/ml), 7% glycerol, 37 C 30 min; 5% acrylamide TBE gel; conditions: protein: recombinant; tags: Cas1 N-terminal His6; Cas2 untagged; chain copies: 4;2; label: 5'-Cy5 on strand 1; 14 bp duplex, 5' overhang 36 nt

B1: DNA-10 (mixed)
DNA 1: AATCAAAGTGGACCCAACTCGAAATCAACCGTAACAAGCAACAAGCAGGC
DNA 2: GCCTGCTTGT
[1]; 5' overhang 40 nt
  binding result: binds

B2: DNA-3' (3' overhang) (mixed)
DNA 1: CGGACGAACAACGAACAATGCCAACTAAAGCTCAACCCAGGTGAAACTAA
DNA 2: TGTTCGTCCG
[1]; 3' overhang 40 nt
  binding result: binds

B3: Duplex (dsDNA)
DNA 1: AATCAAAGTGGACCCAACTCGAAATCAACCGTAACAAGCAACAAGCAGGC
DNA 2: GCCTGCTTGTTGCTTGTTACGGTTGATTTCGAGTTGGGTCCACTTTGATT
[2]
  binding result: no binding

B4: DNA-14 (mixed)
DNA 1: AATCAAAGTGGACCCAACTCGAAATCAACCGTAACAAGCAACAAGCAGGC
DNA 2: GCCTGCTTGTTGCT
[3]
  binding result: binds

From paper PMC6212769, “CRISPR–Cas adaptation in Escherichia coli requires RecBCD helicase but not nuclease activity, is independent of homologous recombination, and is antagonized by 5′ ssDNA exonucleases”
